This data set in a line: soluble fraction after stress (log2 fold change); higher = more stays soluble; pooled small domains, quantitative proteomics. Particulars: stress: pH 4. The procedure, abridged:
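Values are on a log2 scale, where higher means more of the domain stayed soluble after pH 4 stress. They are fold changes in the soluble amount of each domain from pooled custom libraries, measured by high-throughput quantitative proteomics. The fold change is taken to reflect aggregation propensity.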
“HMSHSVLIDISQLRIGMYIQLDVGWMHHPFPVSSFRVASLEQIEALRTLNLAQVRYFPAKSDPV”: the “soluble fraction (log2)” value is -1.11.
Take “HMSIAEMSGARKSAILLLALDEDSAAEIFKYLSAGEVQEISMEMAKLNQVSHDDMKAVLEAFHKETEEFV”: the “soluble fraction (log2)” value was -1.02.
In the case of “HMSIAKIIGDRIRAYRNQKGWSQEYLAEKADVHHTYIGQLERGEKNATIESISKIAGALGVSLSRLFEN” it was 0.192; in that of “HMSIEHVPGYTTLSKREQEIVHALLTRKTPEELADDLSISINTLNKHISHIYHKLGIRGRMQLFDYA”, -0.0894.
With “HMSIEIKTIDVKHADLFQLQDILRNLYPELNIVPDQRNNKLILQGKRELLVEAERLTLQLDTE” the figure was -1.29.
For the sequence “HMSIESPEEFNAKFPPGSEIYATNIQKNAIVQSPANAKGDVEILANSMRLTINFRFISKRDT”, the “soluble fraction (log2)” value was 0.334.
With “HMSIGPQMAGRRVLSGDLIARLEAFEGTVVLGRGVAREDALLIATQAGHVRWEPASRRLWVDSTA” the figure was -0.0304; with “HMSIHPRDKADLGTALSKWKKGALDDKQLELEVARVFMRTYGKKLEGQALNKAVAAWVAALTQSKK”, no less than 0.43.
In the case of “HMSINIDEEKKILGPNADQIIKGITTWGQGLVSKGIWSDADFEEFKIFAATGNGINALNKVRKYY” it was -0.65; in that of “HMSIQMPDLSITPVTDAKKKIESLQLQYKEVGEYNDSVIAGYVIRTEPASGSYLNEDEEVIIYVSKG”, -0.525.
In the case of “HMSISEFNYTEFNGLVEKGQVSEVTISGREIEGRLTSGESFKTYSPETDNSALVGDLLKNNVKINGKP” it was -0.158; in that of “HMSITKDNLSIGTNIRISGFSDIGRIISIPNKGNQVQVQIGSAKMNIKINSIVEIIKEEKDFNKNISN”, 0.189.
Regarding “HMSIYMNIYNEFKKYIIANVYKYDDKLPSVRSIALEYGINPNTVQRAFQLLEDEGYIKTISKKGVYVNYR”, the “soluble fraction (log2)” value was found to be 0.112.
In the case of “HMSKAYLSVESNISGARVFVDGQKEGTTPLSDVLLSAGEHLILVKKQGYETYQKRVRFQKGRSMSLYVDLS”, the “soluble fraction (log2)” value is -0.0554.
Regarding “HMSKDQKKFFIEIVSIRGFGSQIGISILNKLSIPQIINAIKTQNKKEISSIPGIGQKMTERLILELNNKFK”, the “soluble fraction (log2)” value is -0.691.
As for “HMSKININTITESELKELPISTVKQKAIQDYLIDRGFISNIYDLLDIKEITSDDVSLLKKVVNVKLPY”, the “soluble fraction (log2)” value is -0.796.
In the case of “HMSKIVPVAYSQFLKDVKNGNVSQVEIRGNNIKGINNNGSSFSTYAPNDLSLIDKLEKSNVEIIVMPLE” it was -0.232.
In the case of “HMSKKLLVLQTSDDAKAKDVLSQNGYQLDDGDKLSIIETEQTKMADVIKLLSDNAIDIEDVQHVH” it was -0.116.
With “HMSKLQETEIPVALEVEKIPGLSNELKQKLLKIKPQTIGQASRISGITPAAISILMIYIKKNESISAVK” the figure was -0.399; with “HMSKLQKTKYAGVYFTEDTQTRVKTYVARIVLAGIIDTEVVVGHSNDQHRTNAAIAYQRRLELIQEAKN”, -0.372.
Consider “HMSKLSLREIVKKFEEQIIQLHKRGLNHSEISREIVTKNSIDLGDSHIDSLRRAISVHLQTP”, for which the “soluble fraction (log2)” value was -0.201.
In the case of “HMSKPIREVAYETLKNAIVTGEIPAGSRIVETEYAERMHISRTPLREALRKLERDGLVEYVVRRGVVVRAF” it was -0.303; in that of “HMSKPTLTLKSNAYPYNLNGERINNYLGFTYIKKGATLNYQGSKRINGQNYYYIGDGAYIKNTTVGSTNN”, no less than 0.43.
Turning to “HMSKQDRRIRRTRRLLKESLIQLMQEKEFMNISVREVTERADLNRGTFYLHYQDTRHLLQDIENETL”, the “soluble fraction (log2)” value was -1.86.
With “HMSKQEFVDRLRVSLSGKISPASVEDNARYYEDYINTHIRLGEPEEDVLEGLGDPRLIARSIVAAESV” the figure was -0.0405; with “HMSKQLGFKIKTARRKLNISQGDLSKKLEISPSYLNLIESGKRKVSTDLLMKASEILNLDLKKL”, no less than 0.43.
In the case of “HMSKQQFLDELAARLREEGAELLVAENLNFYRSYIEEEVAKGRSEEEVLAELGNPALIARSILDAAGF” it was -1.15; in that of “HMSKSIELMNEIKKYIEEYYLQYRQSPSTTKIAEAVGIARGTAYKYLVEMSERNMIEYDGQEISTEVTRKY”, -0.381.
In the case of “HMSKSKSEIDKDPHFWSSLFQRIGEGESLRKIAKDSKIPKSTLWAWIRNDPQLALRYSEAQQ”, the “soluble fraction (log2)” value amounted to 0.00982.
In the case of “HMSLAATLSPREIDTVRLIAVGSSNKEIARQLGIAETTVKIHVQHILRKLNLTSRVQVAVFANAEGII” it was -0.407; in that of “HMSLAISGRNQLHGIIEEVRSDGLLSQIYLRVGDQVLTAVITRDAVAELKLKRGDTAVAIMKSTEVMIARE”, 0.0191.
With “HMSLDLERAVALLSLPRPVGNHPEDGELVEAGIGRYGPYVKHGSKYANLPDADEVFTIGMNRAVEVLAAK” the figure was -0.261; with “HMSLDTASDKELLGLIVSEPIATRVLDAFRTLDATLFRTTPAELAAAAGVSSEHAQKIKAVAEIAARMLKP”, -0.363.
With “HMSLEDYVIIKNKTVKVYETEFDGAPVVTSSSVGQKLILVEYNDNFAKILYRAKDGLDYVGYIKRKDVYVR” the figure was -1.04.
On to “HMSLLLTPREASVWASEYLGKKVTSNNIIYLLNYGKIANHSTDLKENLIDKNELKIYYDSTIKSQKH”, for which the “soluble fraction (log2)” value stood at 0.00309.
With “HMSLLQDRQRHEALAALGYYRGSVSAAWGAASVEALKAAQAALGVEVDGKWGPKTEDVIQAALGT” the figure was -0.453.
In the case of “HMSLLQTRQRHEALAALGFFKGDVAAEWSAASTEALRAAQASLGIRVDGKWGPQTEDAIGKALAERQG” it was 0.108; in that of “HMSLLTIDELSQATGVSVRTLRYYVSSGVLDKPTGETRNARYGTHHLDQVRNIKKLQEEGLTLNRILEIKK”, -0.405; in that of “HMSLNHDIWVQELKEKRSGYGISQSRLAIAAGMTRQYLSDIETGKVLPSAERKAAITEALERFNPD”, -0.213.
Consider “HMSLNNAHNTIFPRIIELMEMKQLENVLLIGGGIIPRKDIESLESSGVTKLYGPGTPVKETIEFITNWVK”, for which the “soluble fraction (log2)” value is -0.533.
In the case of “HMSLPKVLVPTDITVSQLAKYLEVDAIAIVKKLFGLGVVASLNQRLENEQMQLLGQEFGKDIIFTEN” it was -0.318; in that of “HMSLPTSDWKRALSLFDEALSLPPDARDAWLAHTIAREPAVSPLLQKLLGAHRRVETNDILATLPR”, -0.274; in that of “HMSLQNTMANFAGGVLVLFLKPFKAGDYIVTKDGEGTVASIGLVYTTLLTIENKRIVIPNSSISNSPITN”, -0.673.
With “HMSLRGEKTYDEAHQKLIKSAVELFKNPLVSPEKITVSQIAKHAGVSVATAYNHFPENKLDIYGSIF” the figure was -0.0613; with “HMSLRVIEIFGTPQQMSARISLMDGSVTDVKVGQSIPGTSYKVASITGNGVWIQNGTAVSYTHL”, 0.00817.
In the case of “HMSLSDADVERLLEVAIDIESLEEREGLYYQANESEPYSGWGKLMYDSGQVERLVPYKDGRWEGLWTIW” it was -1.18; in that of “HMSLSISSLVFFRKNAGLTQADIATAMSITQSAVARLEKRLLSDSDVTLKTLERYAEAVGIRMHVDFEP”, -0.0175.
For the sequence “HMSLSKEEFETISKQVLELAGAGPIPVKELLQKMERTSKEKAWKVIEFLQAEDKIVPDATGRIQL”, the “soluble fraction (log2)” value is -0.457.
With “HMSLSKQETEFLTTFSASGKRVFTYQQATDYWQSKVAATNVLGRLVRKGWLQRLERGLYMIIPLEAGPERF” the figure was -0.807; with “HMSLSPAATRSRGYPSVLLTMKAPERLVSAAGPDRRAYLVGTDPLVIELPGVKGLYKVDPDQIVFE”, -0.0637.
In the case of “HMSLTEEQVDSGLKEIRLALLEADVALPVVKNFITNIKPKAIGQEIIRSTSPGQMIVKIVYDELVSIL” it was -0.85.
In the case of “HMSLTEESAKSLIGLTENEAVKVAAERGWTVRVAMRDGEAFMLTQDYSENRVNLTVMKTLVTAVTI” it was -0.0567; in that of “HMSLTMPKLIGMHLFQAERTLNYYGFQYKVEGPDSASVVIDQYPKEGVTVDPHYPITLKIGPSA”, 0.206.
As to “HMSLYGGYEIDIIKEEVVDAGIKLLRRRVIVADQRGISVYEGKPTFASDDQVLIKEGQYQIDKLG”, the “soluble fraction (log2)” value is -1.46.
In the case of “HMSMHVHTPNPDFKPSNTNALQEGQLVEHPKFGFGKVQKIETEGLNKKASIQFEHFGEKTLLLSFAKLRII” it was -0.167; in that of “HMSMLGTEQRVLVLGPARKGEGFLMARTDNNRIVNFEGPLSLVDTMVRVKVTDVYPHSLGGQLL”, -0.0321; in that of “HMSMPDERMLTSWMMARVKAAGKTMTRDAWNEFFERSNDSMDHMDMEMEKLLSYVYDKDGITLEDVEA”, -0.381.
With “HMSMQIILLDKVVNLGGLGDVVKVKDGYARNYLIPQGKAKRANTANLAEFEARRVELERLAAEQLAQAQA” the figure was -0.478; with “HMSMRIDTNTLNYYVQNAQISLSVLRTKINNLDQFLSGEKQPTFNQLSEIAKKINVPTGLLLLNKS”, -0.698; with “HMSMSKISNLLEIMMIIQYKGLTTASELAQSLGVDKKTVYRYINSLSKANIPIYTKKGRYGGFYIDKNF”, 0.138.
In the case of “HMSMSTVGERIKKKRKNLNFTQQELAAKLNISAQAVSKWENGVALPDLGLMPKLAQVLESTVDGLLGYQGA” it was -0.235; in that of “HMSMTLSVLDDVRGLSESRRKQLFHSFGSIKKLREQSKETLMSIPYLPEKVALELYDKLHEE”, 0.272.
Regarding “HMSMVGSVNKQGRPFALLRVDNLLYQVKVGDYLGQNYGRITQIDETQIALREIVQDAAGEWIERPGVLQL”, the “soluble fraction (log2)” value is -0.256.
With “HMSNATELVYDDGRKLLISYETLVGGYHPDLGWIRTAKTYSISTDKHIRNYFNNVTNPRVVGEDILETLKI” the figure was -0.237.
For the sequence “HMSNDRSYLARLQDYYAEHRALPSYASIGALLGLRSKSSVAALVARLKLAGFVESTPDRRLAPTRRFF”, the “soluble fraction (log2)” value was 0.344.
In the case of “HMSNEWIEISAKTVDDAINEGLIRLGTTTDKMDVEVLEKESAGFLGFIGKHDAKIRVRFKEV” it was -0.608; in that of “HMSNGYVTAKTTVNVRKSASESGERLGVIYQGDKLELVMNQADGWTKVKYKGQTAYVKSEFM”, 0.161.
For “HMSNHYETLGVPRDASQEDIKRAYRRLARKLHPDVAGPGKAEEFKAVNEAYAVLSDEESRRMYDLGGDDAL”, the “soluble fraction (log2)” value was found to be 0.145.
With “HMSNIQLVENLYRLRKAHHYTQQEISDLLNISRQAYSNYETSKRTPDLDSLMRLADIYGVSLDQLVNHP” the figure was -0.347.

These data come from the domain aggregation screens of Martell et al. (2025).
